Starred links: 1 amine or outer side, 2 acyl side, 3 side chain; linkers in the order of their positions; H or OH if unused. Non-standard residues stand in square brackets, D forms with d. Groups on a side chain read outwards from the residue. *: point of attachment. C20 diacid = O=C(O)CCCCCCCCCCCCCCCCCCC(=O)*; γGlu = O=C(O)[C@H](CCC(=O)[*:2])N[*:1]; Desaminohistidyl = O=C(CCc1c[nH]cn1)*; AEEA = NCCOCCOCC(=O)O; Inp = O=C(O)C1CCNCC1
Target: T1, human serum albumin (HSA) (human, UniProt P02768 25-609, biotinylated)
T1 construct: also called biotinylated HSA
Assay: competition SPA on biotinylated HSA, 125I acylated GLP-1 tracer;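 further: streptavidin SPA beads carrying biotinylated HSA, competition incubated 20 h at room temperature, plates then read on a TopCount counter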
Method: Streptavidin-SPA beads (GE Healthcare RPNQ0009) were incubated with biotinylated HSA for 5 hours. The beads were washed with buffer to remove unbound HSA. […] After 20 hours of gentle rocking at room temperature the plates were centrifuged and counted on a TopCounter.

EC50: 300 to 800 nM
B1: [DesaminoHis7,Glu22,Arg26,Arg34]GLP-1-(7-37)Lys[2-(2-[2-(2-[2-(2-((S)-4-[1-[19-Carboxynonadecanoyl]piperidine-4-carbonylamino]-4-carboxybutyrylamino)ethoxy)etho … (peptide)
peptide: [Desaminohistidyl]AEGTFTSDVSSYLEEQAAREFIAWLVRGRGK([AEEA-AEEA-γGlu-Inp-C20 diacid])-NH2
SMILES: CC[C@H](C)[C@H](NC(=O)[C@H](Cc1ccccc1)NC(=O)[C@H](CCC(=O)O)NC(=O)[C@H](CCCNC(=N)N)NC(=O)[C@H](C)NC(=O)[C@H](C)NC(=O)[C@H](CCC(N)=O)NC(=O)[C@H](CCC(=O)O)NC(=O)[C@H](CCC(=O)O)NC(=O)[C@H](CC(C)C)NC(=O)[C@H](Cc1ccc(O)cc1)NC(=O)[C@H](CO)NC(=O)[C@H](CO)NC(=O)[C@@H](NC(=O)[C@H](CC(=O)O)NC(=O)[C@H](CO)NC(=O)[C@@H](NC(=O)[C@H](Cc1ccccc1)NC(=O)[C@@H](NC(=O)CNC(=O)[C@H](CCC(=O)O)NC(=O)[C@H](C)NC(=O)CCc1c[nH]cn1)[C@@H](C)O)[C@@H](C)O)C(C)C)C(=O)N[C@@H](C)C(=O)N[C@@H](Cc1c[nH]c2ccccc12)C(=O)N[C@@H](CC(C)C)C(=O)N[C@H](C(=O)N[C@@H](CCCNC(=N)N)C(=O)NCC(=O)N[C@@H](CCCNC(=N)N)C(=O)NCC(=O)N[C@@H](CCCCNC(=O)COCCOCCNC(=O)COCCOCCNC(=O)CC[C@H](NC(=O)C1CCN(C(=O)CCCCCCCCCCCCCCCCCCC(=O)O)CC1)C(=O)O)C(N)=O)C(C)C

Source: patent US20140011732A1 (Novo Nordisk, published 2014)
